Source: the supplement of paper PMC10567573

B1: CCNC (parent)
chain: QSSHYLQWILDKQDLLKERQKDLK
B2: HDAC6 (parent)
chain: KMKTRELHRESSNFDSIYICPSTF

Variants of: B1
Experiment: protein stability index of a GFP-peptide fusion (GPS, HEK-293T) (PSI 1-6); higher = more stable
Conditions: c terminus: a fixed tail appended
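Also: lentivirally expressed fusions sorted by FACS into six bins by GFP to DsRed ratio, PSI derived from sequencing read proportions per bin multiplied by bin number.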

Protein stability index: each site, then its substitutions
H4: M 3.97, D 3.55, W 2.65, F 1.88, V 2.5, Q 2.52, E 3.5, K 2.54
L16: I 3.64, Q 4.15, R 3.78, V 4.04, C 3.52, D 3.58, T 3.73, M 2.52
Y5: S 4.56, W 2.53, G 3.74, A 2.59, H 3.93, L 2.02, I 2.81, N 3.8
Q1: R 3.1, A 2.78, C 3.1, H 2.04, D 2.94, S 3.16, G 3.6, I 2.28, W 1.44, V 2.74
R19: P 3.56, I 2.29, A 2.75, G 3.25, K 3.27, H 3.03, T 3.14, W 2.64, Q 3.5
L10: H 3.52, P 4.58, T 3.34, I 2.97, N 4.17, G 3.76, V 3.09, A 4.22, Q 4.22, W 2.54
Q7: P 3.31, H 3.58, S 2.65, G 3.23, D 3.9, C 2.42, V 1.97, W 2.1
L15: R 2.78, S 3.44, C 3.21, N 3.33, K 3.66, A 4.19, V 3.11, E 4.08
E18: V 2.82, H 2.54, G 2.53, N 2.53, T 2.7, D 3.08, M 2.02, F 2.15, Y 2.2
I9: V 3.09, N 4.01, R 4.12, Q 4.21, S 4, W 3.83, A 4.27, D 4.82, G 3.67
L6: Y 2.77, V 3.7, W 2.96, F 3.52, A 3.83, P 4.53
D22: V 2.79, R 3.72, T 2.31, P 2.6, N 2.9, I 2.48, H 3.02, E 3.19
S3: V 2.29, K 2.82, G 3.39, Y 2.34, T 2.42, D 3.9, I 2.02, E 3.87
K17: Y 2.09, W 1.97, I 2.09, E 3.35, N 3.53, D 2.94, P 3.38, G 2.96, S 3.66, Q 4.4, T 3.34, F 2.62
W8: T 4.39, I 3.16, V 3.52, D 4.55, F 3.77, Q 3.96, R 4.18, A 4.42
K12: T 2.01, H 2.83, S 1.98, L 1.72, D 4.21, Y 2.75, V 2.34, F 2.25, W 1.52
Q13: A 2.74, C 3.1, I 2.59, N 3.74, V 2.76, K 3.49, L 1.85, S 2.91, T 2.7
K21: D 2.83, H 2.45, G 2.87, C 2.42, P 3.42, Q 3.02, Y 2.69, F 1.69, S 2.84
K24: V 2.92, C 2.29, H 3.29, F 2.69, I 2.21, R 2.57
L23: V 2.48, W 2.98, T 3.27, E 3.81, S 3.54, R 3.52, K 3.6, P 2.59, Y 1.85, D 4.22, I 3.39, C 3.31, M 3.31
S2: C 2.27, V 2.64, W 2.7, I 2.07, R 2.39, M 1.49, H 3.02
D14: W 2.73, A 2.58, N 3.39, P 3.17, V 2.9, Q 3.48, E 4.29, L 2.8, S 2.55, M 2.97, H 2.83, R 2.7
Q20: E 2.96, Y 2.38, P 2.76, V 2.69, D 3.01, L 2.17, C 2.46, H 3.16, M 1.99, N 3.21
D11: K 3.09, V 2.86, A 3.01, F 2, G 2.75, Y 3.17, E 3.4, P 3.13, I 2.26, S 3, M 2.36

Variants of: B2
Experiment: as above
Conditions: c terminus: a fixed tail appended

Protein stability index: each site, then its substitutions
M2: L 1.99, I 2.15, G 2.33, Q 3.52
E6: C 1.31, A 1.99, P 1.66, D 2.85, R 1.92, Q 2.66, Y 1.72, T 3.12, K 2
S16: Q 1.91, D 2.68
T23: E 1.96, A 2.16
D15: Q 1.96, F 2.02, A 2
R9: T 2.39, A 2.27, E 2.77, V 2.85, G 2.38, Q 2.58, C 2.39
N13: E 2.23, L 1.74, G 2.68, P 2.49, F 1.45, I 1.73, D 2.61, Y 1.64, R 3.21
S22: H 2.09, V 1.6, R 1.83
I17: D 3.75, Y 2.11, S 2.45, P 2.41, K 3.31, G 2.51
Y18: I 2.31, G 3.09, P 3.33
F24: V 2.82, L 2.69
T4: S 2.94, V 2.08, N 2.03, P 2.05
R5: F 1.94, Y 1.8, M 2.4, T 2.15, Q 2.08, I 1.83, N 2.46
S11: I 2.71, Y 1.98, L 1.66, E 2.2, G 1.96, K 2.72
I19: R 2.47, F 2.81, H 3.1, C 2.34
L7: Q 2.72, V 1.92, F 2.53, Y 2.41, I 2, G 3.12, W 2.62, N 2.65, P 2.72
S12: P 2.12, W 2.17, F 1.74, Q 2.54, H 2.46
H8: N 2.07, V 2.6, Q 2.92, F 1.69, Y 1.56
K3: W 2.14, Q 2.38, Y 2.06, P 2.15, F 2.1
C20: N 3.23, L 2.2, P 2.69, R 2.61, S 2.48
F14: A 3.84, Q 3.71, G 4.12
K1: G 2.29, F 1.92, P 2.58, T 2.14
E10: T 2.83, D 2.03, W 1.22, F 2.26, S 1.79, I 1.85, P 1.82, K 2.71, R 2.1
P21: F 2.44, A 1.77, N 2.37
